# Literature values, collected in article doi:10.1101/2023.01.28.526057v3 (bioRxiv, 2023).
# Conditions: rat modeling parameter, Table S7, column PBS
substance,measurement,value
liraglutide,t1/2 in SC,0.9504 min
